Data as given in patent US20230114801A1 (SYSTIMMUNE, published 2023).

Key:
[1] = biological target: T1, human CD3 (human, UniProt P07766 23-126; P04234 22-105); assay: BLI (Octet), binder on AHC sensor, 100 nM human antigen, 1:1 fit
T1 construct: also called His-tagged human CD3; human CD3 (Acro CDD-H52W1)

[2] = biological target: T2, human EGFR (human, UniProt P00533 25-645, limits assumed); assay: as above
T2 construct: Soluble antigen in Octet; construct not described

[3] = biological target: T3, human HER3 (human, UniProt P21860 20-643); assay: as above
T3 construct: Soluble antigen in Octet; bought; also called human HER3 (Acro ER3-H5223)

[4] = biological target: T1, human CD3; assay: BLI (Octet), binder on AHC sensor, 100 nM human CD3, 1:1 fit
[5] = biological target: T2, human EGFR; assay: BLI (Octet), binder on AHC sensor, 200 nM human EGFR, 1:1 fit

Kd [1] [nM] | Kd [2] [nM] | Kd [3] [nM] | Kd [4] [nM] | Kd [5] [nM] | Binder
47.3 | 2.72 | 93.8 |  |  | SI-75X18 (other, tri-miniGNC; D3 αCD3* (Fab), D4 αEGFR, D5 αHER3) chain 1: QVQLQESGGRLVQPGEPLSLTCKTSGIDLSSNAIGWVRQAPGKGLEWIGVIFGSGNTYYASWAKGRFTISRSTSTVYLKMNSLRSEDTAIYYCARGGYSSDIWGQGTLVTVSSASTKGPSVFPLAPSSKSTSGGTAALGCLVKDYFPEPVTVSWNSGALTSGVHTFPAVLQSSGLYSLSSVVTVPSSSLGTQTYICNVNHKPSNTKVDKRVEPKSCDKTHTCPPCPAPEAAGGPSVFLFPPKPKDTLMISRTPEVTCVVVDVSHEDPEVKFNWYVDGVEVHNAKTKPREEQYNSTYRVVSVLTVLHQDWLNGKEYKCAVSNKALPAPIEKTISKAKGQPREPQVYTLPPSRDELTKNQVSLSCAVKGFYPSDIAVEWESNGQPENNYKTTPPVLDSDGSFFLVSKLTVDKSRWQQGNVFSCSVMHEALHNHYTQKSLSLSPGGGGGSGGGGSQVQLQQSGPGLVKPSETLSITCTVSGFSLTNYGVHWIRQAPGKGLEWLGVIWSGGNTDYNTPFTSRFTITKDNSKNQVYFKLRSVRADDTAIYYCARALTYYDYEFAYWGQGTLVTVSSGGGGSGGGGSGGGGSGGGGSEIVLTQSPSTLSVSPGERATFSCRASQSIGTNIHWYQQKPGKPPRLLIKYASESISGIPDRFSGSGSGTEFTLTISSVQSEDFAVYYCQQNNNWPTTFGPGTKLTVL chain 2: DPQLTQSPSSLSATVGQRVTINCQSSQSVAKNNNLAWFQQKPGKPPKLLIYSASTLAAGVPSRFSGSGSGTQFTLTITRVQSEDFATYYCSARDSGNIQSFGGGTRVEIKRTVAAPSVFIFPPSDEQLKSGTASVVCLLNNFYPREAKVQWKVDNALQSGNSQESVTEQDSKDSTYSLSSTLTLSKADYEKHKVYACEVTHQGLSSPVTKSFNRGECGGDKTHTCPPCPAPEAAGGPSVFLFPPKPKDTLMISRTPEVTCVVVDVSHEDPEVKFNWYVDGVEVHNAKTKPREEQYNSTYRVVSVLTVLHQDWLNGKEYKCAVSNKALPAPIEKTISKAKGQPREPQVYTLPPSRDELTKNQVSLWCLVKGFYPSDIAVEWESNGQPENNYKTTPPVLDSDGSFFLYSKLTVDKSRWQQGNVFSCSVMHEALHNRFTQKSLSLSPGGGGGSGGGGSQVQLQESGGGLVKPGGSLSLSCAASGFTFSSYWMSWVRQAPGKGLEWVANINRDGSASYYVDSVKGRFTISRDDAKNSLYLQMNSLRAEDTAVYYCARDRGVGYFDLWGRGTLVTVSSGGGGSGGGGSGGGGSQSALTQPASVSGSPGQSITISCTGTSSDVGGYNFVSWYQQHPGKAPKLMIYDVSDRPSGVSDRFSGSKSGNTASLIISGLQADDEADYYCSSYGSSSTHVIFGGGTKVTVL
 |  |  | 56 | 34 | SI-75X13 (bispecific antibody, human IgG1, kappa, L234A L235A, bi-miniGNC; D3 αCD3* (Fab), D4 αEGFR VHH) chain 1: QVQLQESGGRLVQPGEPLSLTCKTSGIDLSSNAIGWVRQAPGKGLEWIGVIFGSGNTYYASWAKGRFTISRSTSTVYLKMNSLRSEDTAIYYCARGGYSSDIWGQGTLVTVSSASTKGPSVFPLAPSSKSTSGGTAALGCLVKDYFPEPVTVSWNSGALTSGVHTFPAVLQSSGLYSLSSVVTVPSSSLGTQTYICNVNHKPSNTKVDKRVEPKSCDKTHTCPPCPAPEAAGGPSVFLFPPKPKDTLMISRTPEVTCVVVDVSHEDPEVKFNWYVDGVEVHNAKTKPREEQYNSTYRVVSVLTVLHQDWLNGKEYKCAVSNKALPAPIEKTISKAKGQPREPQVYTLPPSRDELTKNQVSLSCAVKGFYPSDIAVEWESNGQPENNYKTTPPVLDSDGSFFLVSKLTVDKSRWQQGNVFSCSVMHEALHNHYTQKSLSLSPGGGGGSGGGGSEVQLQESGGGLVQAGDSLSLSCLVSGRSFNSYTMGWFRQAPGKEREFVAAILWSGPTTYYADSVKGRFTISRDNAKNTVYLQMNSLKPEDTAVYYCAAALGVLVLAPGNVYSYWGQGTQVTVSS chain 2: DPQLTQSPSSLSATVGQRVTINCQSSQSVAKNNNLAWFQQKPGKPPKLLIYSASTLAAGVPSRFSGSGSGTQFTLTITRVQSEDFATYYCSARDSGNIQSFGGGTRVEIKRTVAAPSVFIFPPSDEQLKSGTASVVCLLNNFYPREAKVQWKVDNALQSGNSQESVTEQDSKDSTYSLSSTLTLSKADYEKHKVYACEVTHQGLSSPVTKSFNRGECGGDKTHTCPPCPAPEAAGGPSVFLFPPKPKDTLMISRTPEVTCVVVDVSHEDPEVKFNWYVDGVEVHNAKTKPREEQYNSTYRVVSVLTVLHQDWLNGKEYKCAVSNKALPAPIEKTISKAKGQPREPQVYTLPPSRDELTKNQVSLWCLVKGFYPSDIAVEWESNGQPENNYKTTPPVLDSDGSFFLYSKLTVDKSRWQQGNVFSCSVMHEALHNRFTQKSLSLSPG
 |  |  | 65.7 | 21.6 | SI-75X11 (bispecific antibody, human IgG1, kappa, L234A L235A, bi-miniGNC; D1 αEGFR VHH, D3 αCD3* (Fab)) chain 1: EVQLQESGGGLVQAGDSLSLSCLVSGRSFNSYTMGWFRQAPGKEREFVAAILWSGPTTYYADSVKGRFTISRDNAKNTVYLQMNSLKPEDTAVYYCAAALGVLVLAPGNVYSYWGQGTQVTVSSGGGGSGGGGSQVQLQESGGRLVQPGEPLSLTCKTSGIDLSSNAIGWVRQAPGKGLEWIGVIFGSGNTYYASWAKGRFTISRSTSTVYLKMNSLRSEDTAIYYCARGGYSSDIWGQGTLVTVSSASTKGPSVFPLAPSSKSTSGGTAALGCLVKDYFPEPVTVSWNSGALTSGVHTFPAVLQSSGLYSLSSVVTVPSSSLGTQTYICNVNHKPSNTKVDKRVEPKSCDKTHTCPPCPAPEAAGGPSVFLFPPKPKDTLMISRTPEVTCVVVDVSHEDPEVKFNWYVDGVEVHNAKTKPREEQYNSTYRVVSVLTVLHQDWLNGKEYKCAVSNKALPAPIEKTISKAKGQPREPQVYTLPPSRDELTKNQVSLSCAVKGFYPSDIAVEWESNGQPENNYKTTPPVLDSDGSFFLVSKLTVDKSRWQQGNVFSCSVMHEALHNHYTQKSLSLSPG chain 2: DPQLTQSPSSLSATVGQRVTINCQSSQSVAKNNNLAWFQQKPGKPPKLLIYSASTLAAGVPSRFSGSGSGTQFTLTITRVQSEDFATYYCSARDSGNIQSFGGGTRVEIKRTVAAPSVFIFPPSDEQLKSGTASVVCLLNNFYPREAKVQWKVDNALQSGNSQESVTEQDSKDSTYSLSSTLTLSKADYEKHKVYACEVTHQGLSSPVTKSFNRGECGGDKTHTCPPCPAPEAAGGPSVFLFPPKPKDTLMISRTPEVTCVVVDVSHEDPEVKFNWYVDGVEVHNAKTKPREEQYNSTYRVVSVLTVLHQDWLNGKEYKCAVSNKALPAPIEKTISKAKGQPREPQVYTLPPSRDELTKNQVSLWCLVKGFYPSDIAVEWESNGQPENNYKTTPPVLDSDGSFFLYSKLTVDKSRWQQGNVFSCSVMHEALHNRFTQKSLSLSPG
33.4 | 6.8 | 113 |  |  | SI-75X16 (other, tri-miniGNC; D1 αEGFR, D2 αHER3, D3 αCD3* (Fab)) chain 1: EIVLTQSPSTLSVSPGERATFSCRASQSIGTNIHWYQQKPGKPPRLLIKYASESISGIPDRFSGSGSGTEFTLTISSVQSEDFAVYYCQQNNNWPTTFGPGTKLTVLGGGGSGGGGSGGGGSGGGGSQVQLQQSGPGLVKPSETLSITCTVSGFSLTNYGVHWIRQAPGKGLEWLGVIWSGGNTDYNTPFTSRFTITKDNSKNQVYFKLRSVRADDTAIYYCARALTYYDYEFAYWGQGTLVTVSSGGGGSGGGGSQVQLQESGGRLVQPGEPLSLTCKTSGIDLSSNAIGWVRQAPGKGLEWIGVIFGSGNTYYASWAKGRFTISRSTSTVYLKMNSLRSEDTAIYYCARGGYSSDIWGQGTLVTVSSASTKGPSVFPLAPSSKSTSGGTAALGCLVKDYFPEPVTVSWNSGALTSGVHTFPAVLQSSGLYSLSSVVTVPSSSLGTQTYICNVNHKPSNTKVDKRVEPKSCDKTHTCPPCPAPEAAGGPSVFLFPPKPKDTLMISRTPEVTCVVVDVSHEDPEVKFNWYVDGVEVHNAKTKPREEQYNSTYRVVSVLTVLHQDWLNGKEYKCAVSNKALPAPIEKTISKAKGQPREPQVYTLPPSRDELTKNQVSLSCAVKGFYPSDIAVEWESNGQPENNYKTTPPVLDSDGSFFLVSKLTVDKSRWQQGNVFSCSVMHEALHNHYTQKSLSLSPG chain 2: QSALTQPASVSGSPGQSITISCTGTSSDVGGYNFVSWYQQHPGKAPKLMIYDVSDRPSGVSDRFSGSKSGNTASLIISGLQADDEADYYCSSYGSSSTHVIFGGGTKVTVLGGGGSGGGGSGGGGSGGGGSQVQLQESGGGLVKPGGSLSLSCAASGFTFSSYWMSWVRQAPGKGLEWVANINRDGSASYYVDSVKGRFTISRDDAKNSLYLQMNSLRAEDTAVYYCARDRGVGYFDLWGRGTLVTVSSGGGGSGGGGSDPQLTQSPSSLSATVGQRVTINCQSSQSVAKNNNLAWFQQKPGKPPKLLIYSASTLAAGVPSRFSGSGSGTQFTLTITRVQSEDFATYYCSARDSGNIQSFGGGTRVEIKRTVAAPSVFIFPPSDEQLKSGTASVVCLLNNFYPREAKVQWKVDNALQSGNSQESVTEQDSKDSTYSLSSTLTLSKADYEKHKVYACEVTHQGLSSPVTKSFNRGECGGDKTHTCPPCPAPEAAGGPSVFLFPPKPKDTLMISRTPEVTCVVVDVSHEDPEVKFNWYVDGVEVHNAKTKPREEQYNSTYRVVSVLTVLHQDWLNGKEYKCAVSNKALPAPIEKTISKAKGQPREPQVYTLPPSRDELTKNQVSLWCLVKGFYPSDIAVEWESNGQPENNYKTTPPVLDSDGSFFLYSKLTVDKSRWQQGNVFSCSVMHEALHNRFTQKSLSLSPG
